US8841274B2, “Protein arginine N-methyltransferase-5 method of cancer treatment” (priority 2009, dated 2014)

Tests used:
PRMT5 [1] = biological target: T1, PRMT5 (Homo sapiens, UniProt O14744); experiment: GST binding assay with U2OS cell lysate, PRMT5 immunoblot; design: The indicated GST proteins were incubated with U2OS cell lysate; endogenous in cells; host or cells: U2OS; conditions: GST-E2F-1 proteins incubated with U2OS cell lysate
Experimental: It was then assessed whether E2F-1 could interact with PRMT5 and thereafter the role of each R residue in mediating the interaction. […] The indicated GST proteins were incubated with U2OS cell lysate, and bound proteins immunoblotted using anti-GST (for input GST), DP-1 or PRMT5 antibodies. Binding to DP-1, the major heterodimeric partner for E2F-1 (Stevens and La Thangue 2003), served as a control since it bound equally to each of the E2F-1 proteins.
GST or GST tagged proteins (10 μg each) were incubated with agarose beads and damaged or undamaged U2OS cell lysates for 3 h. Beads were then washed with TNN buffer 3 times. SDS sample buffer was added to beads and samples were analysed by immunoblotting.
Target sequence in this assay (O14744 whole entry): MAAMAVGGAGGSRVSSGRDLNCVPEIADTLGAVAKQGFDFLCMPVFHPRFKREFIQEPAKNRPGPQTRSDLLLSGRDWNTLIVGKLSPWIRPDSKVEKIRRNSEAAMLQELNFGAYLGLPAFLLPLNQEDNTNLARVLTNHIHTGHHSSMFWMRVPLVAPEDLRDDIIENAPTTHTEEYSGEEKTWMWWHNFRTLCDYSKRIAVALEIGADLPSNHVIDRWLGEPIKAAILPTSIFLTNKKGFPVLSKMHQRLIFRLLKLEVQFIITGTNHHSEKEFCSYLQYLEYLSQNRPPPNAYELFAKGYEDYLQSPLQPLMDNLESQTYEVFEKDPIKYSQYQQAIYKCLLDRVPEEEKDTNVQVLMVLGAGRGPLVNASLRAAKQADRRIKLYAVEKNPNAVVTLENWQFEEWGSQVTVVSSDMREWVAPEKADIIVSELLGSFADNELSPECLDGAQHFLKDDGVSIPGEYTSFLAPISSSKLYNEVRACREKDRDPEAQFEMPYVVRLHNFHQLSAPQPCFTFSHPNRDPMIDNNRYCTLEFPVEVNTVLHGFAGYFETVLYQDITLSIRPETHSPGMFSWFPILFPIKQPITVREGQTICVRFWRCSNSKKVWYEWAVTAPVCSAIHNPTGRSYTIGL

[2] = test system: p73-luciferase or cyclinE-luciferase; experiment: Reporter assay with E2F-responsive promoters; format: cell-based; conditions: U2OS cells, 48 h, equivalent protein level; compared to wild-type E2F-1; n=3
Experimental: To further explore the role of arginine methylation in the transcription properties of E2F-1, wild-type E2F-1 was compared with the KK and KKK mutants in a reporter-based transfection assay, using E2F-responsive promoters derived from E2F target genes. The assay was performed under conditions in which each mutant protein was expressed at an equivalent level to wild-type E2F-1 (FIG. 4aii and bii), thus ruling out any difference in activity that could be attributed to protein levels. […] FIGS. 4a and b show the transcription properties of wild-type E2F-1, KK and KKK mutants. U2OS cells were transfected with expression vectors encoding WT or mutant E2F-1 protein, together with p73-luciferase (A) or cyclinE-luciferase (B) for 48 h as indicated, and pCMV-βgal to monitor transfection efficiency. Relative luciferase activity (luciferase/βgal) is shown together with expression level of ectopic proteins; n=3. […] PRMT5 (P) or control (C) non-targeting siRNA was transfected into U2OS cells together with p73-luciferase (i) or cyclinE-luciferase (ii) for 48 h, together with pCMV-βgal to monitor transfection efficiency. Relative luciferase activity is shown together with expression level of the ectopic proteins.
Cells were transfected with expression vectors (1 μg) encoding WT or the mutant E2F-1 proteins as indicated with E2F responsive luciferase reporters, namely p73-luciferase or cyclinE-luciferase, together with pCMV-βgal to monitor transfection efficiency. Cells were harvested, lysed 48 h post-transfection and luciferase activity measured as previously described (Janson et al 2008).

U2OS cells = experiment: Apoptosis (sub-G1) by FACS in U2OS cells; format: cell-based; conditions: U2OS cells, expression vectors 48 h; relative to wild-type E2F-1; n=2
Experimental: Whether arginine methylation influences E2F-1-dependent apoptosis was investigated by comparing the ability of wild-type E2F-1 to the KK and KKK mutants to induce cells with a sub-G1 DNA content (Stevens et al 2003). […] U2OS cells were transfected with expression vectors encoding wild-type E2F-1, KK and KKK as indicated for 48 h and analysed by FACS as described. The graph represents the relative change in sub-G1 populations compared to the empty vector control treatment; n=2.
The graph (i) represents the relative number of sub-G I cells (compared to the control treatment) in the indicated conditions; and (ii) the level of PRMT5 and E2F-1; n=3.
PRMT5 (P) or control (C) non-targeting siRNA (25 nM) was transfected into HCT116 p53+/+ (i), HCT116 p53−/− (ii) or U2OS (iii) cells and the cells were harvested 72 h post-transfection and analysed by FACS. The graph represents the actual number of sub-G1 cells in the indicated conditions, and the immunoblot the level of PRMT5 and actin control; n=3.
PRMT5 (P), E2F-1 (E) or control (C) non-targeting siRNA was transfected into U2OS cells and harvested 72 h post-transfection and analysed by FACS as described.
Cells were transfected with the indicated expression vectors together with pBB14-GFP (for 48 h) to monitor transfection efficiency or siRNA (for 48 h or 72 h) with or without treatment of the DNA damage agent for the last 16 h. Then, cells were fixed and stained with propidium iodide and analyzed by Flow Cytometry.

PRMT5 [3] = biological target: T1, PRMT5; experiment: In vitro methyltransferase assay of E2F-1 proteins; format: biochemical; design: made in house; host or cells: U2OS cells (transient transfection, anti-Flag immunoprecipitation, elution); conditions: about 1 μg protein, 3H labeled SAM; mutants compared with wild-type E2F-1
Experimental: To assess whether the RGRGR motif was a direct target for PRMT5 methylation, a series of mutant derivatives of E2F-1 were made in which each arginine (R) residue was substituted with a lysine residue (K; FIG. 1a), and the ability of the mutant derivative to be methylated in vitro then assessed. […] In FIG. 1b(i) each of the indicated proteins (about 1 μg) was used in the methylation reaction. In vitro methylated samples were analysed by SDS-PAGE as described below. E2F-1 is indicated. In FIG. 1b(ii) samples in FIG. 1b(i) were counted (3H cpm as indicated). Histones treated with PRMT5 served as the positive control. The data shown provide one example taken from two different experiments.
Flag-PRMT5 plasmid was transfected into U2OS cells for 48 h. Cells were lysed and Flag-PRMT5 was immunoprecipitated with agarose beads and then eluted. The elute was mixed with recombinant substrates (GST fusion proteins or histones) in methylation reaction buffer (50 mM Tris, 0.1 mM EDTA, 50 mM NaCl) with ^3H labeled SAM (as —CH3 group donor) to a volume of 40 μl and incubated at 30° C. for 90 min. Half of the reactions were then spotted onto p81 membrane circles (Whatman) and air dried. The membranes were then washed three times, 5 min each in 50 ml of wash buffer (46 mM NaHCO3, 4 mM Na2CO3, pH 9.2). After washing briefly with acetone, membranes were air dried, placed in scintillation vials, immersed in scintillation fluid (Beckman Coulter) and disintegrations per minute (DPM) measured in a scintillation counter. The other half of the reactions were run on SDS-PAGE gel and used to detect ^3H auto-radioisotope/methylation signal.
Target sequence in this assay (O14744 whole entry): as above
Target sequence in this assay (Q9BQA1 whole entry partner): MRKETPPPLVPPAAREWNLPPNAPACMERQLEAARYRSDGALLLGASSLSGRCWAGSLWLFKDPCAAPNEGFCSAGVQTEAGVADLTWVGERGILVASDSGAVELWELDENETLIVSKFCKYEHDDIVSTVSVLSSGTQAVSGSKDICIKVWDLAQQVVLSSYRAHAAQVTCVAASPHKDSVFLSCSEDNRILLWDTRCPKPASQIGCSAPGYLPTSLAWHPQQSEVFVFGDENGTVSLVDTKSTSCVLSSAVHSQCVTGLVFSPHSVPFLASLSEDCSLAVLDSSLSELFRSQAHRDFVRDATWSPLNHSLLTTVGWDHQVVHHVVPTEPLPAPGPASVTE

PRMT5 [4] = biological target: T1, PRMT5; experiment: Co-immunoprecipitation of ectopic E2F-1 with PRMT5 in U2OS cells; format: cell-based; design: The indicated GST proteins were incubated with U2OS cell lysate; endogenous in cells; host or cells: U2OS; conditions: expression vector transfected into U2OS cells, HA11 IP
Source text: (§1) To establish whether E2F-1 was able to bind to PRMT5 in cells, the interaction between ectopic wild-type E2F-1 or KKK with PRMT5 was studied. […] Either a wild-type E2F-1 expression vector or a KKK expression vector was transfected into U2OS cells, and HA11 antibody was used for immunoprecipitation (IP) followed by immunoblotting with HA11 (E2F-1), PRMT5 or DP-1 as indicated. The level of input (In) protein is indicated. […] In contrast, binding to DP-1 was equivalent for both wild-type E2F-1 and KKK. […] Further, the RGRGR motif is necessary for the interaction, which also encompasses the site of PRMT5 methylation.
(§2) Cells were either left untransfected or transfected with expression vectors as indicated. At 48 h post transfection, cells were harvested in TNN buffer (50 mM Tris-HC1 [pH 7.4], 150 mM NaCl, 5 mM EDTA, 0.5% Ipegal, 50 mM NaF, 0.2 mM sodium orthovanadate and protease inhibitor cocktail (1 mM PMSF, leupeptin [1 μg/ml], aprotinin [1 μg/m1], and pepstatin A [1 μg/ml])) and rotated at 4° C. for 30 min to 1 h. The cell lysate was then homogenised, centrifuged at 11000 rpm for 10 min to remove cell debris and the supernatant collected. All lysates were normalized for protein concentration and, where appropriate, for transfection by β-galactosidase activity. […] Enhanced chemi-luminescence (Pierce Biotechnology, Rockford, Ill.) was used to visualize antibody binding.
Target sequence in this assay (O14744 whole entry): as the sequence (O14744 whole entry) above

DP-1 = biological target: T2, DP-1 (Homo sapiens, UniProt Q14186); experiment: Co-immunoprecipitation of ectopic E2F-1 with DP-1 in U2OS cells; format: cell-based; conditions: expression vector transfected into U2OS cells, HA11 IP
T2 construct: endogenous in cells; host or cells: U2OS
T2 sequence (Q14186 1-410): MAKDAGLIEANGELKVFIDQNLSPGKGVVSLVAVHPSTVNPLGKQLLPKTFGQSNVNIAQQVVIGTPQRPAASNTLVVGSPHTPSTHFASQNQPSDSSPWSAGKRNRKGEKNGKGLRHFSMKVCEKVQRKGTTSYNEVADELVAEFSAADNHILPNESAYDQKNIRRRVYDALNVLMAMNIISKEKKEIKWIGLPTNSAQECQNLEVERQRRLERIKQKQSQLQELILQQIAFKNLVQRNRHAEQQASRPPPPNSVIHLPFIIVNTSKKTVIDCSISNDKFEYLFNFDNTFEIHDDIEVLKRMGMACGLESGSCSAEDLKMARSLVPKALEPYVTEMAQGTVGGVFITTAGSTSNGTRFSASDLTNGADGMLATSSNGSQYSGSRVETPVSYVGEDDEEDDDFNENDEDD
Source text: as §1, §2

Substance | binding to PRMT5 (PRMT5 [1]) | transcriptional activity (relative luciferase activity) [2] | apoptosis (sub-G1 population) (U2OS cells) | in vitro methylation by PRMT5 (PRMT5 [3]) | co-immunoprecipitation with PRMT5 (PRMT5 [4]) | binding to DP-1 in cells (DP-1)
KK: methylation-defective E2F-1 protein containing the mutations R111K and R113K | completely devoid of PRMT5 binding | increased transcriptional activity | increased levels of apoptosis | could not be methylated by PRMT5 |  | 
R113K: mutant E2F-1 with arginine 113 substituted with lysine | compromised PRMT5 binding |  |  | greater level of reduction |  | 
R109K: mutant E2F-1 with arginine 109 substituted with lysine | significant PRMT5 binding activity |  |  | reduced methylation |  | 
wild-type E2F-1: E2F-1 protein, SEQ ID NO:3, used as GST fusion or HA-tagged expression vector | bound to PRMT5 |  |  | could be methylated in vitro | co-immunoprecipitated with PRMT5 | equivalent
R111K: mutant E2F-1 with arginine 111 substituted with lysine | compromised PRMT5 binding |  |  | greater level of reduction |  | 
